This assay has as its target AGL6 fused to YFP or CFP (Arabidopsis thaliana) (UniProt P29386). Description: FRET or BRET; in vivo FRET on the FYL1-AGL6-AGL6-AGL15 tetramer: one CFP and one YFP fusion co-expressed with the unlabeled other members in tobacco leaf cells; steady-state FRET efficiency in nuclei. (In BRET a luciferase serves as donor, and the signal depends on an acceptor being close.)
Sequence of UniProt P29386 (P29386 whole entry, the tested form may be a part): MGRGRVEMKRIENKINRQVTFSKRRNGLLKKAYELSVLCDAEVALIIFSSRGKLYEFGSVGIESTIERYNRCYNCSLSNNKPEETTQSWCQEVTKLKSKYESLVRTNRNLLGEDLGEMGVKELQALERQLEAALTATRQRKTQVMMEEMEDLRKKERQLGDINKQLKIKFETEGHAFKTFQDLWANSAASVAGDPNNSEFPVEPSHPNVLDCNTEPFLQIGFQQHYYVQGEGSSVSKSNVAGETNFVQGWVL

“FYF-like 1 (FYL1/AGL71) fused to CFP or YFP (from UniProt Q9LT93 1-207) (natural protein)” came in with an FRET efficiency (AGL6:CFP/FYL1:YFP, unlabeled AGL15 co-expressed) of 32%.

Source of the values: paper PMC9256709.
